Assay results: the DeepSol protein solubility set

Assay: soluble on expression in E. coli; label from the status in PepcDB or PDB records

| Sequence | soluble on expression in E. coli |
| --- | --- |
| MYPNLFQPLDLGFTQLKNRVLMGSMHTGLEENKEGLHKLAAFYEERAKGGVGLIVTGGFSPNLRGRLHPFSAEFSKTKHAKAHKVVTEAVHRHGAKIALQLLHAGRYAMHPFSQSASAIRAPIAKFAPSEMSTRQIRNTIQDFANSAELAQLAGYDGVEVMGSEGYLINQFICKRTNMRYDEWGGSYQNRIRFPVEIVKAIREAVGKEFIIIFRLSMLDLVEQGSTFEEVVVLAKALEEAGVTIINTGIGWHEARIPTIATQVPRAAFSWVTEKIKPYLKVPVVTCNRINTPEQAEKILASGQADMVSMARPFLADADFVRKAQEGQSALINTCIGCNQACLDNVFRGKRASCLVNPRACYETEIVVKPAQSKKIAVVGAGPAGLAFATTASERGHQVDLFERNDRIGGQFRLAMQIPGKEEFRETIRYFANRIDQTGVKLHLGCEVQFSDLRGYDEVVIATGVTPRKIALAGLSESSKVVDYQTLIREKTPVGQKVAIVGAGGIGVDVASMLTEPKDQTLDDWLYEWGIDKAIEHPGGLYPYPETTSEREVWLLQRRKGAVGKGPGKTTGWIHKRTLEKRGVHLVGGVQYQKIDEQGLHIERDGKSELIDADSVVICAGQESVRPFEAQWAELGDKLHVIGGADVAGELDAARAIRQGVELAVRL | not soluble |
| MGSDKIHHHHHHCKPAARSVITESSLIFTSIHSSYVISTYYKRCVVLSQRKEAVQNMNVYQLKEELIEYAKSIGVDKIGFTTADTFDSLKDRLILQESLGYLSGFEEPDIEKRVTPKLLLPKAKSIVAIALAYPSRMKDAPRSTRTERRGIFCRASWGKDYHDVLREKLDLLEDFLKSKHEDIRTKSMVDTGELSDRAVAERAGIGFSAKNCMITTPEYGSYVYLAEMITNIPFEPDVPIEDMCGSCTKCLDACPTGALVNPGQLNAQRCISFLTQTKGFLPDEFRTKIGNRLYGCDTCQTVCPLNKGKDFHLHPEMEPDPEIAKPLLKPLLAISNREFKEKFGHVSGSWRGKKPIQRNAILALAHFKDASALPELTELMHKDPRPVIRGTAAWAIGKIGDPAYAEELEKALEKEKDEEAKLEIEKGIELLKASGMTKQGLS | not soluble |
| MSLNANRPIINLDLDLLRTFVAVADLNTFAAAAAAVCRTQSAVSQQMQRLEQLVGKELFARHGRNKLLTEHGIQLLGYARKILRFNDEACSSLMFSNLQGVLTIGASDESADTILPFLLSRISSVYPKLALDVRVKRNAYMVDMVKSQEVDLVVTTNQPHSLDCLNLRTSPTHWYCAAEYVLQRGEPVPLVLLDDPSPFRDMVLETLNAAGIPWRLAYVASTLPAVRAAVKAGLGVTARPVEMMSPDLRVLGAADGLPPLPDTEYLLCRDPNSQNELAMVIFHAMESYQNEGHHHHHH | soluble |
| MPLTNNSTTKPQEIAAIDLGSNSFHMVIARVVNGALQVLGRLKQRVHLADGLDSNNMLSEEAIERGLACLALFAERLQGFSPDNVCIVGTHTLRQAANAETFLKRAAEVIPYPIEIISGQEEARLIFMGVEHTQPEKGRKLVIDIGGGSTEMVIGEDFEPLLVESRRMGCVSFAQQFFPGGEISKNNFRRARLAAAQKLENLAWQYRIQGWQYALGASGTIKATYEVLVEMGEKDGLITPERLEMLVENVLQFKQFSALSLPGLSEDRQSVFVPGLAILCGVFDALAIKTLRLSDGALREGVLYEMEGRFRHQDIRQRTAKSLADHYNIDREQARRVLETTEQLYTQWLAQNTKLVQPQLEALLKWAAMLHEVGLSINHSGMHRHSAYILQNTNLPGFNQEQQTLLATLVRMHRKAIKLDELPRLNLFKKKYYLPLIQLLRLSTLLNNQRQSTTTPESLRLITDDSHWTLRFPHGYLTQNSLVQLDFEREQAYWDDVVGWKLVIEEEEPDEAAKVAPEE | soluble |
| MKMARMSKKKKLEMLDVARDEERNRIIRLLTEDDNFTPSLEPLIDNYLDAFIIYKTMFEEWKADGFAPTKTHKNKAGAVNEMKHPLAQQVETWNDKKNKMLEALGMTNKGKSVQKTPKNAENIQTDEPKDELAAHRNKWRKSK | not soluble |
| SLKIDTHAHIFLKKLNTVANARYKPDYDASFKDYKANLDHYDFNKGVLVQPSFLGIDNEFLLQSIEKDENIKAIVVVDENIKFDELKKLKERKACGVRLNLIGKELPNFKSMVWTQFFENLSKLKMQIEIQRDLDNNLVDIVENLIPYGCNIVIDHLARANANLTNLEDLICLKNSRIFFKISGFYRAKIDYANNEQAVKFAKKIYEILKEHFPLSNFVFGSDWPHTNFEANINFSSALVAFNEVVVSKKEQEQILGDNACALFGF | soluble |
| MGSDKIHHHHHHMSTRIPTEESLDTQQKDFLKKLKDNHYVGQNIWIKGFPGSGKSVLLVYAIKYLLNNEATQNAKILLVVFTHSLIELCKAELAELNITNVKIVTMYEFLKTKRKYDYIFCDEVQDLTSRILIKMKDQTRYMLIVAGDSNQSIYSKDPQYQEAVVIPEKITQLIDSEDWGLLYVYRLTRSIITAIQKMIPSMNIFSAKRYMLKRDTQIRLCKAEFVDQEVEYIMREARKFVNRNQSCAILFPTKDKVLEFCDTVLQLEHKPVWEKWIDQYYEPYFKRLNDHLKENQVPIECVVNSYGSLLAAENDKRIVIMTYHGVKGLDFDNVFIPFANTDLYIPGDSNITQKLFMVAMSRSRNNLYITYTGMPLSYVSLFSSDSTICANISISNELHPNLSDDINIDF | not soluble |
| MRGSHHHHHHTDPALRAAIIPKNYARLESGYREKALKIYPWVCGRCSREFVYSNLRELTVHHIDHDHTNNPEDGSNWELLCLYCHDHEHSKYTEADQYGTTVIAGEDAQKDVGEAKYNPFADLKAMMNKKKGLCGR | soluble |
| MGSDKIHHHHHHMLSTVFRRTMATGRHFIAVCQMTSDNDLEKNFQAAKNMIERAGEKKCEMVFLPECFDFIGLNKNEQIDLAMATDCEYMEKYRELARKHNIWLSLGGLHHKDPSDAAHPWNTHLIIDSDGVTRAEYNKLHLFDLEIPGKVRLMESEFSKAGTEMIPPVDTPIGRLGLSICYDVRFPELSLWNRKRGAQLLSFPSAFTLNTGLAHWETLLRARAIENQCYVVAAAQTGAHNPKRQSYGHSMVVDPWGAVVAQCSERVDMCFAEIDLSYVDTLREMQPVFSHRRSDLYTLHINEKSSETGGLKFARFNIPADHIFYSTPHSFVFVNLKPVTDGHVLVSPKRVVPRLTDLTDAETADLFIVAKKVQAMLEKHHNVTSTTICVQDGKDAGQTVPHVHIHILPRRAGDFGDNEIYQKLASHDKEPERKPRSNEQMAEEAVVYRNLM | not soluble |
| GASALSLSLLSISRSGNTVTLIGDFPDEAAKAALMTALNGLLAPGVNVIDQIHVDPVVRSLDFSSAEPVFTASVPIPDFGLKVERDTVTLTGTAPSSEHKDAVKRAATSTWPDMKIVNNIEVTGQAPPGPPA | soluble |
| MKLGYSLSKSNAKNFKFYINGSAMGYKNIIINGAKSWNASPYLNTVSKGRDANPHFIISSSTIDRGATVAVCETWAYKGSKLVAKNEITTFKAFRSLSVGDKTETIAHEFGHGLGLGHVKTKNAIMLDVGFTKKIKPQRDDLNGIKAIYKLEHHHHHH | not soluble |
| GMTDQSVRIIEAALRLYMKKPPHEVSIEEIAREAKVSKSLIFYHFESKQKLLEEAVMHAFRKMMEEFNPRSVEEVVDYGIGFIAERREFIEFMMYALSQVRIEELERMFGEALEKVASLFEGCRHPRETAIALMAMLDGLSIYSLYFDLGKLEKYREIAMEFVESRRVRA | soluble |
| MGSDKIHHHHHHMNLAYLILAHNNPNHLQKLISSLDTSDVHFFVHIDGKSNILPFQANLISNKVTFVQERRNIFWGEFSIVQATIDLMKTALNKQDFDYLILISGSDYPLKNAQYIKDFFSKNKGSEFINLVELPNEQASKNLNRLYQYRISFSSKNIVLRAFRRVINCIINDLFHWQRNYRKSLGELKPYAGSQWWALSGDACNYILNFIAKNPEILKFFQTALIPDESFFHTILANSDFLTKVKPNLTFTKWNDTAHPEYITVEIVRDFKGMDAIYNHSIGGYGEVLFARKFAPDSDEVIKFINDNIA | not soluble |
| MGSDKIHHHHHHMIEYRIEEAVAKYREFYEFKPVRESAGIEDVKSAIEHTNLKPFATPDDIKKLCLEARENRFHGVCVNPCYVKLAREELEGTDVKVVTVVGFPLGANETRTKAHEAIFAVESGADEIDMVINVGMLKAKEWEYVYEDIRSVVESVKGKVVKVIIETCYLDTEEKIAACVISKLAGAHFVKTSTGFGTGGATAEDVHLMKWIVGDEMGVKASGGIRTFEDAVKMIMYGADRIGTSSGVKIVQGGEERYGG | soluble |
| GPGSMGQSIGDRLQNLVLRDEERARLLSLQNTKSILPSLAPSRRLLLVHAIMTLVVPYVTRKVQRKVLEEGWEREPVPTARYRIAKALRYAVVTWSLLSLANTFNFLMTGRYRTLVERILSLRLVYGSQRMMRFTNLLYMNQHVQWQTWMSLFSALSLGR | not soluble |
| MTTKRIDRDLPSSDDPSSAKRRIEFPEETLENDGAAAIKLLSLLLQCAEYVATDHLREASTLLSEISEICSPFGSSPERVVAYFAQALQTRVISSYLSGACSPLSEKPLTVVQSQKIFSALQTYNSVSPLIKFSHFTANQAIFQALDGEDSVHIIDLDVMQGLQWPALFHILASRPRKLRSIRITGFGSSSDLLASTGRRLADFASSLNLPFEFHPIEGIIGNLIDPSQLATRQGEAVVVHWMQHRLYDVTGNNLETLEILRRLKPNLITVVEQELSYDDGGSFLGRFVEALHYYSALFDALGDGLGEESGERFTVEQIVLGTEIRNIVAHGGGRRKRMKWKEELSRVGFRPVSLRGNPATQAGLLLGMLPWNGYTLVEENGTLRLGWKDLSLLTASAWKSQPFD | soluble |
| RLVLAGNGMAGIRCIEEVLKLNRHMFEIVIFGSEPHPNYNRILLSSVLQGEASLDDITLNSKDWYDKHGITLYTGETVIQIDTDQQQVITDRKRTLSYDKLIVATGSSPHILPIPGADKKGVYGFRTIEDCQALMNMAQHFQKAAVIGAGLLGLEAAVGLQHLGMDVSVIHHSAGIMQKQLDQTAARLLQTELEQKGLTFLLEKDTVSISGATKADRIHFKDGSSLKADLIVMAAGVKPNIELAVSAGIKVNRGIIVNDFMQTSEPNIYAVGECAEHNGTVYGLVAPLYEQGKALASHICGVPCEEYQGSAPSAALKIAGIDVWSAGKIQEDERTTSIKIYDEQAGVYKKALFVDDKLRVILFGDTRDKQRLLDSLLKQRDISIAKKQIIEPETSGPLFESMPSSETICQCNTVTKGAIEDAVHTNSLTTVEEVKHCTKATGSCGGCKPLVEDLLRYMTNSEYTKPASTPSFCSCTDFTEDDIIAELQRRPFTNPAEVMNQLDWKTKNGCSTCVPAIQYYLEMLYPGFVQPEPATEETCILIPQMYGGRTNAEQLRTIANIIEAYSIPDVSITHGQRLKLSGIKPADLPNMKKDLKMPVYTNEHRHALQSIKACTCGQNRSIQQLAAQIERQLEMLPLPAPISISLSCETDCTEAALQDVGAIRTQAGWDIHIGGVRGTHARSGALFCVTENEDSTAGMIKGLIQYYRETDHYLEGVHQWIDRLGIVHIREVLFEEDLRAQLLESLQTDLSLIQNPTVETGAYKK | not soluble |
| MGSDKIHHHHHHMALVKLQTQHFRNLLSAPVEFSPSFNLLYGANGSGKTSVLEAIGYLGLGRSFRVSRHQAVVAHGQSKLTVFGALDSGLLAQESSEKVEHRIGISRDVSLKETQLRVDGEAVRSLSFLAMHLPVSVIDPGVFDIVAGGPGKRRQFLDWLVFHVEPSFSSLWQQVQRVTSQRNQMLRNGRLDESLMRVWDSQYGALAESLSDIRETVFQRFKIAFESVLAELDAPWVEGLKMDFYPGWDRSTALTEVLVNHREQERRMGHTLYGPNRADIRLKFGGRPVAETFSRGQQKTLVILMKIAQGKVLSDLGKQVTFLLDDINAELDVRHRVMLARNLQELRCQVFITSIEHPEPDTLWHDGDTPEYRMFHVEHGQLTEE | not soluble |
